The target of experiment [1] is T1, vasoactive intestinal peptide (VIP) (human).
T1 construct: also called human VIP
T1 peptide: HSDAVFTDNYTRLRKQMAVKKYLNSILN
The experiment in a line: ELISA screen of B-cell culture supernatant; VIP at 100 ng/mL. In general terms: An ELISA detects its analyte on a solid surface through an enzyme-linked reagent.

For experiment [2], the target named is T2, full-length human PACAP38 (human, not fully specified).
T2 construct: Corresponds to amino acids 132-169 of the precursor (NP 001108.2); The description says natural PACAP38 is C-terminally amidated; also called Full-length PACAP38
T2 peptide: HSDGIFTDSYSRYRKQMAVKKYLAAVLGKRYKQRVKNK
Description: ELISA screen of B-cell culture supernatant; full-length PACAP38 at 10 ng/mL. The text has this: (§1) Rabbits were immunized with human PACAP38 peptide ([…]; SEQ ID NO: 1). Monoclonal antibodies were generated from the immunized rabbits using the Selected Lymphocyte Antibody Method (SLAM) as described in Babcook et al., Proc. Natl. Acad. Sci. USA, Vol. 93: 7843-7848, 1996. Briefly, B cells were harvested from spleens from the immunized rabbits and expanded in culture. The supernatant from the expanded B-cell cultures was initially screened for binding to an amino terminal PACAP38 peptide ([…]; SEQ ID NO: 5) and a carboxy terminal PACAP38 peptide ([…]; SEQ ID NO: 4) using an ELISA assay. From the initial screen, 2,935 N-terminal and/or C-terminal binders were identified. The affinity of these antibodies for full-length human PACAP38 (SEQ ID NO: 1) was assessed by ELISA assay.

A further experiment addresses T3, human PACAP27 (human, not fully specified).
T3 peptide: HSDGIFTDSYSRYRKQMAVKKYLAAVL
The experiment in a line: cell-based or functional assay.

Experiment [3] concerns the target T2, full-length human PACAP38. Description: cell-based or functional assay.
Experiment [4] deals with T4, amino terminal PACAP38 peptide (amino acids 1-13) (human).
T4 construct: also called N-terminal Peptide; N-terminal PACAP peptide
T4 peptide: HSDGIFTDSYSRY
Description: ELISA screen of B-cell culture supernatant; N-terminal peptide at 500 ng/mL; ELISA screen of B-cell culture supernatant (Example 1); N-terminal peptide 500 ng/mL; optical density.
Source text: as §1

For experiment [5], the target named is T5, carboxy terminal PACAP38 peptide (amino acids 28-38) (human, ends and bridges not checked).
T5 construct: also called C-terminal Peptide; C-terminal PACAP peptide
T5 peptide: GKRYKQRVKNK
The experiment in a line: ELISA screen of B-cell culture supernatant.

In experiment [6] the target is T5, carboxy terminal PACAP38 peptide (amino …). Description: ELISA screen of B-cell culture supernatant; C-terminal peptide at 500 ng/mL.
Source text: as §1

For experiment [7], the target named is T6, PACAP38 peptide fragment 34-38 (human, ends and bridges not checked).
T6 construct: also called peptide No. 17; RVKNK
T6 peptide: RVKNK
Description: SPR (Biacore 3000), solution competition with the peptide for antibody binding to immobilised full-length PACAP38; % inhibition. How it is done:
(§2) The binding epitopes of anti-PACAP antibodies were evaluated by using the Biacore 3000 biosensor-based instrument (GE Healthcare USA). The Biacore 3000 instrument utilizes surface plasmon resonance (SPR) technology to measure mass increase on the sensor-chip surface. The binding interactions are measured in real-time and recorded as Response Units (RU). Each binding profile (cycle) is stored in a “sensorgram” in real-time. Generally, Biacore technology entails immobilizing a ligand of interest on to a flow-cell of the sensor-chip via a coupling chemistry. The analyte (e.g. putative binding partner to the ligand of interest) is injected across the immobilized ligand allowing it to bind to the ligand-immobilized surface. The magnitude of the response is directly proportional to the mass increase on the immobilized surface due to the binding of the analyte.
(§3) In this experiment, various peptide fragments of PACAP38 were incubated with each of the six antibodies (mAb1, mAb2, mAb3, mAb4, mAb5, and mAb6) described in Example 2 and evaluated for their ability to inhibit binding of the antibodies to full-length PACAP38 immobilized on the sensor-chip. The binding epitopes for each of the antibodies were deduced from the set of peptides that were able to inhibit the binding of each antibody to full-length PACAP38.
(§4) Each of the six anti-PACAP antibodies was incubated at a 1:200 molar ratio (Ab: peptide fragment) with each of the peptide fragments in Table 9 at an ambient temperature for 2 hours prior to analysis. […] A second control containing 6.5 nM antibody was prepared in sample diluent to be used as the untreated control sample for each antibody. Full-length PACAP38, buffer, and each peptide fragment were also tested to evaluate non-specific binding to the immobilized PACAP38 surface.
In general terms: In SPR one partner is held on a chip, and binding of the other changes the refractive index at the surface.

For experiment [8], the target named is T7, PACAP38 peptide fragment 11-27 (human).
T7 construct: also called peptide No. 8
T7 peptide: SRYRKQMAVKKYLAAVL
The description is as above. How it is done:
as §2, §3, §4

For experiment [9], the target named is T8, 31-38 (ends and bridges not checked).
T8 construct: also called PACAP38 peptide fragment 31-38; peptide No. 5
T8 peptide: YKQRVKNK
The description is as above. As to the method: as §2, §3, §4

Another experiment has as its target T9, 30-37.
T9 construct: also called PACAP38 peptide fragment 30-37; peptide No. 19
T9 peptide: RYKQRVKN
The experiment is described as above. As to the method:
as §2, §3, §4

Experiment [10] addresses T10, PACAP38 peptide fragment 14-38 (human, not fully specified).
T10 construct: also called peptide No. 7
T10 peptide: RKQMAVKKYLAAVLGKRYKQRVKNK
The experiment is described as above. As to the method:
as §2, §3, §4

In experiment [11] the target is T11, PACAP38 peptide fragment 27-38 (human, ends and bridges not checked).
T11 construct: also called peptide No. 6
T11 peptide: LGKRYKQRVKNK
Description: SPR (Biacore 3000) solution competition against immobilised PACAP38.

Experiment [12] concerns the target T12, PACAP38 peptide fragment 6-36 (human).
T12 construct: also called peptide No. 12
T12 peptide: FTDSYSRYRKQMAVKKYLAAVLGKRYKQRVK
Description: SPR (Biacore 3000) solution competition: antibody pre-incubated 1:200 with the fragment, then injected over immobilised PACAP38. How it is done:
as §3, §4

The target of experiment [13] is T13, PACAP38 peptide fragment 6-37 (human).
T13 construct: also called peptide No. 3
T13 peptide: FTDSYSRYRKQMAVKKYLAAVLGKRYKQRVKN
Described as above. As to the method:
as §3, §4

In experiment [14] the target is T14, PACAP38 peptide fragment 6-20 (human).
T14 construct: also called peptide No. 13
T14 peptide: FTDSYSRYRKQMAVK
Described as above. As to the method:
as §3, §4

For experiment [15], the target named is T15, PACAP38 peptide fragment 6-35 (human).
T15 construct: also called peptide No. 4
T15 peptide: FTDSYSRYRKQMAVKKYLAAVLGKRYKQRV
Described as above. How it is done: as §3, §4

Experiment [16] addresses T16, PACAP38 peptide fragment 4-27 (human).
T16 construct: also called peptide No. 9
T16 peptide: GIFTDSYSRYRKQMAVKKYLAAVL
The description is as above. How it is done:
as §3, §4

Experiment [17] concerns the target T17, PACAP38 peptide fragment 6-38 (human, not fully specified).
T17 construct: also called peptide No. 11
T17 peptide: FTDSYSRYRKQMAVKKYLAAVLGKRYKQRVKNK
The experiment is described as above. As to the method:
as §3, §4

In experiment [18] the target is T11, PACAP38 peptide fragment 27-38. Description: SPR (Biacore 3000), solution competition: antibody pre-incubated 2 h with the peptide at 1:200 molar ratio (Ab:peptide), then injected over immobilised full-length PACAP38; readout % inhibition of antibody binding (filing counts >50 % as reactive). As to the method:
as §2, §3, §4

In experiment [19] the target is T1, vasoactive intestinal peptide (VIP). Description: ELISA screen of B-cell culture supernatant.
In experiment [20] the target is T4, amino terminal PACAP38 peptide (amino …). The experiment in a line: ELISA screen of B-cell culture supernatant; N-terminal peptide at 500 ng/mL.
The target is the same in experiment [21]. The experiment in a line: SPR (Biacore 3000), solution competition with the peptide for antibody binding to immobilised full-length PACAP38; % inhibition. How it is done: as §2, §3, §4
Experiment [22] has as its target T14, PACAP38 peptide fragment 6-20. Described as above. How it is done: as §2, §3, §4
The target in experiment [23] is T8, 31-38. Description: SPR (Biacore 3000), solution competition: antibody pre-incubated 2 h with the peptide at 1:200 molar ratio (Ab:peptide), then injected over immobilised full-length PACAP38; readout % inhibition of antibody binding (filing counts >50 % as reactive). As to the method:
as §2, §3, §4

In experiment [24] the target is T18, PACAP38 peptide fragment 26-33 (human).
T18 construct: also called peptide No. 2
T18 peptide: VLGKRYKQ
The experiment in a line: SPR (Biacore 3000) solution competition against immobilised PACAP38.

Residue numbers refer to the chain shown, from its start. Ends that are not written are not given here.

B1: mAb4 (antibody, V domains shown)
VH: QSVEESGGRLVTPGTPLTLTCTASGIDLSSYAMIWVRQAPGEGLEYIGFIDAGDGNTYYASWAKGRFTISKTSTTVDLKITSPTTEDTATYFCARGDPGWSNGFALWGQGTLVTVSS
VL: DIVMTQTPASVSGAVGGTVTIKCQASQSIRNELSWYQQKPGQPPKLLIYKASTLASGVPSRFSGSGFGTEFTLTISGVQCDDAATYYCQNNYGTRRNNYVFPFGGGTEVVVKG
notes: Rabbit monoclonal antibody (SLAM), recombinant; also called monoclonal anti-PACAP antibody 4; 4 (c47)
As for B1, the Optical Density in experiment [1] came to 0.24 OD; in experiment [2], 2.09 OD; in [4], 3.68 OD; in experiment [6], 0.05 OD. In addition, in the experiment with human PACAP27, the “IC50: inhibition of PACAP27 (10 pM)-induced activation of human PAC1 receptor, cAMP assay in SH-SY5Y (CRL-2266) cells, POC versus antibody concentration” value was 3.7 nM. For the same molecule, the “IC50: inhibition of PACAP38 (10 pM)-induced activation of human PAC1 receptor, cAMP assay in SH-SY5Y (CRL-2266) cells, POC versus antibody concentration” value in [3] worked out at 12 nM. Moreover, the binding result in experiment [5] is on record as “no binding (tested: 500 ng/mL)”; in [7] it was “no binding (tested: 1:200 molar ratio (Ab:peptide))”; in experiment [8], “no binding (tested: 1:200 molar ratio (Ab:peptide))”; in the experiment with 31-38 [9] it was “no binding (tested: 1:200 molar ratio (Ab:peptide))”; with 30-37, “no binding (tested: 1:200 molar ratio (Ab:peptide))”; in experiment [10] it was “no binding (tested: 1:200 molar ratio (Ab:peptide))”. The binding result in experiment [11] was “no binding (tested: 1:200 molar ratio (Ab: peptide fragment))”; in [12], “binds”; in experiment [13], “binds”; in experiment [14], “binds”; in experiment [15], “binds”; in experiment [16], “binds”. In addition, in experiment [17], the binding result is recorded as “binds”.

B2: mAb3 (antibody, V domains shown)
VH: QSLEESGGGLVQPGASLTLTCTASGFSFSSNYYMCWVRQAPGKGLEWIACIFTGSSGSTYYASWAKGRFTISKTSSTTVTLHVTSLTAADTATYFCARDRALSVVGYFYAAYYFDFWGPGTLVTVSS
VL: DVVMTQTPSPVSAAVGGTVTINCRASEDIESFLAWYQQKPGQPPKLLMSRTSTLESGVPSRFKGSGSGTEFTLTISDLECADAATYYCQCTDGSSSSSSYGWDAFGGGTEVVVKG
notes: Rabbit monoclonal antibody (SLAM), recombinant; also called monoclonal anti-PACAP antibody 3; 3 (c89)
B2: the “Optical Density” value was 0.07 OD in experiment [1], 3.59 OD in experiment [6] and 0.06 OD in experiment [20]. Also, the binding result is given as “binds” in experiment [18]; “no binding (tested: 100 ng/mL)” in experiment [19]; “no binding (tested: 1:200 molar ratio (Ab:peptide))” in [7]; “no binding (tested: 1:200 molar ratio (Ab:peptide))” with 30-37; “no binding (tested: 1:200 molar ratio (Ab:peptide))” in experiment [21]; “no binding (tested: 1:200 molar ratio (Ab:peptide))” in experiment [22].

B3: mAb1 (antibody, V domains shown)
VH: QSLEESGGDLVKPGASLTLTCKASGIAFSNDYMCWVRQAPGKGLEWIACIFTGSSGSTYYASWAKGRFTISKTSSTTVTLQMTSLTAADTATYFCARDRAISVLGYFYAAYFFDFWGPGTLVTVSS
VL: B2 VL with M48I, P59S, T72I
notes: Rabbit monoclonal antibody (SLAM), cloned, recombinantly expressed and purified; also called monoclonal anti-PACAP antibody 1; 1 (c20)
On to B3, for which the “Optical Density” value in experiment [1] was 0.08 OD; in [6], 5.33 OD; in [20], 0.05 OD. The binding result is given as “binds” with 31-38 [23]; “binds” in experiment [18]; “no binding (tested: 100 ng/mL)” in experiment [19]; “no binding (tested: 1:200 molar ratio (Ab:peptide))” in [21]; “no binding (tested: 1:200 molar ratio (Ab:peptide))” in [22]; “no binding (tested: 1:200 molar ratio (Ab: peptide fragment))” in experiment [24].

(Values after patent US20180362643A1 (Amgen, published 2018).)
